This data set deals with Escherichia coli TOP10. The data set can be described thus: shrunken log2 fold change of peptide-encoding DNA abundance (4.5 h post-induction vs induction); higher = less antimicrobial activity (less host growth inhibition). The settings on record: time post-induction: 4.5 h; library: site-saturation at positions 5, 18, 19, 20.

Here are results for 125 sequences from the supplement of paper PMC9112550, “Optimization of the antimicrobial peptide Bac7 by deep mutational scanning” (BMC Biology, 2022).
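Further: peptides expressed intracellularly from a pBAD plasmid library in pooled LB shake-flask culture, induced with 0.3% L-arabinose, DNA abundance read by NGS, three biological replicates, DESeq2 with apeglm shrinkage.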

With RRIRDRPPRLPRPRPRPLQCPRP, the “shrunken log2 fold change” value is 0.0793. In the case of RRIRSRPPRLPRPRPRPNMDPRP, the “shrunken log2 fold change” value is -0.184. Next, RRIRVRPPRLPRPRPRPRVNPRP: -0.159.

Turning to RRIRTRPPRLPRPRPRPIRLPRP, the “shrunken log2 fold change” value stood at 0.0213. Take RRIRNRPPRLPRPRPRPDRIPRP: the “shrunken log2 fold change” value was -0.0387. Next, RRIRSRPPRLPRPRPRPCKAPRP: 0.00989.

With RRIRERPPRLPRPRPRPFMIPRP, the “shrunken log2 fold change” value was -0.768. Next, RRIRHRPPRLPRPRPRPPTEPRP: 0.159; RRIRKRPPRLPRPRPRPFPHPRP: -0.04. Next, RRIRWRPPRLPRPRPRPCGTPRP: 0.481. In the case of RRIRNRPPRLPRPRPRPTQSPRP it was 0.291; in that of RRIRMRPPRLPRPRPRPMDDPRP, 0.15. Take RRIRYRPPRLPRPRPRPENMPRP: the “shrunken log2 fold change” value was -0.134. Take RRIRDRPPRLPRPRPRPCISPRP: the “shrunken log2 fold change” value amounted to 0.0261. Next, RRIRWRPPRLPRPRPRPHWCPRP: -0.062; RRIRTRPPRLPRPRPRPLDYPRP: -2.42.

RRIRPRPPRLPRPRPRPAHYPRP: the “shrunken log2 fold change” value was 0.02. In the case of RRIRERPPRLPRPRPRPWSDPRP it was -0.0787. Next, RRIRMRPPRLPRPRPRPMSAPRP: 0.333. Regarding RRIRLRPPRLPRPRPRPHMAPRP, the “shrunken log2 fold change” value stood at 0.0118. On to RRIRYRPPRLPRPRPRPFSWPRP, for which the “shrunken log2 fold change” value is -0.235. RRIRPRPPRLPRPRPRPLADPRP: the “shrunken log2 fold change” value was 0.188. Next, RRIRQRPPRLPRPRPRPERWPRP: 0.251; RRIRNRPPRLPRPRPRPMFYPRP: -0.166; RRIRLRPPRLPRPRPRPIQKPRP: 0.0625. In the case of RRIRWRPPRLPRPRPRPELTPRP it was 0.772; in that of RRIRPRPPRLPRPRPRPVWVPRP, 0.0215; in that of RRIRQRPPRLPRPRPRPHEEPRP, -0.0442.

Regarding RRIRYRPPRLPRPRPRPNSTPRP, the “shrunken log2 fold change” value is -1.01. For RRIRCRPPRLPRPRPRPSYHPRP, the “shrunken log2 fold change” value was 0.811. As for RRIRFRPPRLPRPRPRPMYNPRP, the “shrunken log2 fold change” value is -0.294.

As to RRIRFRPPRLPRPRPRPSVRPRP, the “shrunken log2 fold change” value is -0.302. With RRIRNRPPRLPRPRPRPAFHPRP, the “shrunken log2 fold change” value was -0.436. On to RRIRCRPPRLPRPRPRPWDCPRP, for which the “shrunken log2 fold change” value is -0.469. For the sequence RRIRARPPRLPRPRPRPPTQPRP, the “shrunken log2 fold change” value came out at 0.718. In the case of RRIRNRPPRLPRPRPRPWMCPRP it was -1.23; in that of RRIRMRPPRLPRPRPRPTFMPRP, 0.154; in that of RRIRLRPPRLPRPRPRPPHHPRP, 0.253. Next, RRIRGRPPRLPRPRPRPFCAPRP: 0.836; RRIRWRPPRLPRPRPRPRYHPRP: -0.198.

Regarding RRIRGRPPRLPRPRPRPTACPRP, the “shrunken log2 fold change” value was 1.35. In the case of RRIRHRPPRLPRPRPRPIDYPRP it was -0.017.

On to RRIRMRPPRLPRPRPRPRFRPRP, for which the “shrunken log2 fold change” value was found to be 0.784. In the case of RRIRIRPPRLPRPRPRPHQMPRP it was 0.0234.

For the sequence RRIRCRPPRLPRPRPRPCSQPRP, the “shrunken log2 fold change” value was -0.256. RRIRNRPPRLPRPRPRPPDKPRP: the “shrunken log2 fold change” value is 0.182. Next, RRIRQRPPRLPRPRPRPCRYPRP: -0.167; RRIRDRPPRLPRPRPRPNSLPRP: 0.0174; RRIRARPPRLPRPRPRPECWPRP: 1.97. Regarding RRIRRRPPRLPRPRPRPWQPPRP, the “shrunken log2 fold change” value is -0.108. For the sequence RRIRCRPPRLPRPRPRPRRPPRP, the “shrunken log2 fold change” value is 0.654. In the case of RRIRIRPPRLPRPRPRPQISPRP, the “shrunken log2 fold change” value is 0.0222. Take RRIRYRPPRLPRPRPRPVVNPRP: the “shrunken log2 fold change” value is -0.683. Next, RRIRERPPRLPRPRPRPCVQPRP: -0.0665. On to RRIRPRPPRLPRPRPRPFYFPRP, for which the “shrunken log2 fold change” value was -0.387. Next, RRIRMRPPRLPRPRPRPGHRPRP: 1.35. Next, RRIRARPPRLPRPRPRPGYVPRP: -0.0339; RRIRNRPPRLPRPRPRPYKHPRP: -0.819. Regarding RRIRCRPPRLPRPRPRPNRPPRP, the “shrunken log2 fold change” value is -0.0846. In the case of RRIRERPPRLPRPRPRPHWPPRP it was 0.132; in that of RRIRRRPPRLPRPRPRPVSYPRP, 0.241. Next, RRIRFRPPRLPRPRPRPGKKPRP: 0.0937; RRIRARPPRLPRPRPRPRMMPRP: 0.229; RRIRYRPPRLPRPRPRPSRWPRP: 0.0398. On to RRIRARPPRLPRPRPRPWPPPRP, for which the “shrunken log2 fold change” value amounted to 0.887. Next, RRIRYRPPRLPRPRPRPCKYPRP: -0.627. Next, RRIRYRPPRLPRPRPRPKHVPRP: -0.4.

In the case of RRIRGRPPRLPRPRPRPWTGPRP, the “shrunken log2 fold change” value is -0.0411. Next, RRIRTRPPRLPRPRPRPYPLPRP: 0.0692; RRIRARPPRLPRPRPRPVLDPRP: 0.185. For the sequence RRIRMRPPRLPRPRPRPKGGPRP, the “shrunken log2 fold change” value amounted to 0.115. RRIRCRPPRLPRPRPRPHQLPRP: the “shrunken log2 fold change” value is -0.465. Turning to RRIRARPPRLPRPRPRPNCMPRP, the “shrunken log2 fold change” value is -0.421.

With RRIRSRPPRLPRPRPRPIYVPRP, the “shrunken log2 fold change” value was -0.612.

Take RRIRGRPPRLPRPRPRPPLTPRP: the “shrunken log2 fold change” value was 0.971. Turning to RRIRLRPPRLPRPRPRPWRDPRP, the “shrunken log2 fold change” value is -0.252. In the case of RRIRMRPPRLPRPRPRPDVTPRP, the “shrunken log2 fold change” value is 0.109. On to RRIRVRPPRLPRPRPRPTMMPRP, for which the “shrunken log2 fold change” value is -0.494. In the case of RRIRLRPPRLPRPRPRPICLPRP, the “shrunken log2 fold change” value is 0.193.

Take RRIRERPPRLPRPRPRPCCMPRP: the “shrunken log2 fold change” value is -0.831. With RRIRIRPPRLPRPRPRPNRYPRP, the “shrunken log2 fold change” value was -0.295. Next, RRIRIRPPRLPRPRPRPLFDPRP: -0.803.

As to RRIRNRPPRLPRPRPRPPWGPRP, the “shrunken log2 fold change” value is 0.254.

As to RRIRKRPPRLPRPRPRPFAGPRP, the “shrunken log2 fold change” value came to 0.191.

As for RRIRMRPPRLPRPRPRPADLPRP, the “shrunken log2 fold change” value worked out at 0.752.

Take RRIRKRPPRLPRPRPRPNDHPRP: the “shrunken log2 fold change” value is -0.177. On to RRIRVRPPRLPRPRPRPDEEPRP, for which the “shrunken log2 fold change” value was 0.393. For RRIRFRPPRLPRPRPRPAVIPRP, the “shrunken log2 fold change” value was -0.0689. In the case of RRIRKRPPRLPRPRPRPQMHPRP it was 0.0713; in that of RRIRQRPPRLPRPRPRPDQDPRP, 0.192; in that of RRIRTRPPRLPRPRPRPGFEPRP, 0.613. Consider RRIRKRPPRLPRPRPRPMIRPRP, for which the “shrunken log2 fold change” value is 0.134.

As for RRIRIRPPRLPRPRPRPNKIPRP, the “shrunken log2 fold change” value was -0.634.

On to RRIRQRPPRLPRPRPRPLEWPRP, for which the “shrunken log2 fold change” value was 0.0921. As for RRIRSRPPRLPRPRPRPRYSPRP, the “shrunken log2 fold change” value was -0.232. With RRIRLRPPRLPRPRPRPFCWPRP, the “shrunken log2 fold change” value came out at 0.231. Consider RRIRVRPPRLPRPRPRPYPRPRP, for which the “shrunken log2 fold change” value was 0.0644. In the case of RRIRNRPPRLPRPRPRPKRWPRP it was 0.0633; in that of RRIRCRPPRLPRPRPRPPNLPRP, -0.0983. In the case of RRIRKRPPRLPRPRPRPLIMPRP, the “shrunken log2 fold change” value was -0.376. Regarding RRIRVRPPRLPRPRPRPFVKPRP, the “shrunken log2 fold change” value was -0.199. Next, RRIRCRPPRLPRPRPRPKITPRP: -0.573; RRIRDRPPRLPRPRPRPLGHPRP: 0.0421; RRIRARPPRLPRPRPRPSFNPRP: -0.268. Next, RRIRFRPPRLPRPRPRPWYGPRP: -0.138. In the case of RRIRPRPPRLPRPRPRPFRQPRP, the “shrunken log2 fold change” value is -0.00634. Next, RRIRIRPPRLPRPRPRPTKLPRP: -0.406; RRIRFRPPRLPRPRPRPMLSPRP: -0.0375. Next, RRIRCRPPRLPRPRPRPYRQPRP: 0.00128. In the case of RRIRHRPPRLPRPRPRPCYEPRP it was -0.185. With RRIRGRPPRLPRPRPRPCTEPRP, the “shrunken log2 fold change” value is 0.509. Next, RRIRVRPPRLPRPRPRPVFMPRP: -0.113. In the case of RRIRNRPPRLPRPRPRPRTTPRP it was -0.0126.

With RRIRSRPPRLPRPRPRPEALPRP, the “shrunken log2 fold change” value was -0.0643. On to RRIRERPPRLPRPRPRPFFTPRP, for which the “shrunken log2 fold change” value was -0.106. In the case of RRIRQRPPRLPRPRPRPRFMPRP it was 0.137; in that of RRIRRRPPRLPRPRPRPHVAPRP, -0.138. As for RRIRMRPPRLPRPRPRPHHEPRP, the “shrunken log2 fold change” value is -0.00212.

On to RRIRPRPPRLPRPRPRPSAIPRP, for which the “shrunken log2 fold change” value was -0.32. For RRIRDRPPRLPRPRPRPEIMPRP, the “shrunken log2 fold change” value stood at 0.245. Turning to RRIRWRPPRLPRPRPRPGSFPRP, the “shrunken log2 fold change” value came to 0.0155.

For RRIRLRPPRLPRPRPRPYSQPRP, the “shrunken log2 fold change” value is -0.0787.

For the sequence RRIRHRPPRLPRPRPRPIITPRP, the “shrunken log2 fold change” value is -1.46. In the case of RRIRKRPPRLPRPRPRPQQWPRP it was 0.105; in that of RRIRHRPPRLPRPRPRPFRKPRP, 0.00884.
